The record followed here is patent US20160115500A1 (University of California, published 2016).

The target in series [1] is T1, 6×-His tagged PYR1^K59R,F108A,S122G.
T1 chain: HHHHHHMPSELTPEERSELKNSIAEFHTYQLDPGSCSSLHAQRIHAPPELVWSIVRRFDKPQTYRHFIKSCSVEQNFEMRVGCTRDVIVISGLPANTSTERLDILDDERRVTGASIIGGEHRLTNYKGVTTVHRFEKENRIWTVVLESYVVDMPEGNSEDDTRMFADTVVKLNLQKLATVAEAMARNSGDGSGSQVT

Another series addresses T2, 6×-His-PYR1^MANDI.
T2 chain: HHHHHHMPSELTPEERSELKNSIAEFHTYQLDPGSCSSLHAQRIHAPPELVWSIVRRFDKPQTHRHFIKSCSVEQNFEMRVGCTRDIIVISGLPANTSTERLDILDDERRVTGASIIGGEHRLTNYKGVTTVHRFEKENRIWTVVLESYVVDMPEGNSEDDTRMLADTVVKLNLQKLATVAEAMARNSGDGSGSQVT

Series [2] deals with T3, GAL4 activation domain fusion (ACT) to HAB1 (UniProt Q9CAJ0 23-511, limits assumed).
T3 construct: pACT-HAB1 fusion in yeast reporter strains; also called pACT-HAB1
T3 sequence (looked up): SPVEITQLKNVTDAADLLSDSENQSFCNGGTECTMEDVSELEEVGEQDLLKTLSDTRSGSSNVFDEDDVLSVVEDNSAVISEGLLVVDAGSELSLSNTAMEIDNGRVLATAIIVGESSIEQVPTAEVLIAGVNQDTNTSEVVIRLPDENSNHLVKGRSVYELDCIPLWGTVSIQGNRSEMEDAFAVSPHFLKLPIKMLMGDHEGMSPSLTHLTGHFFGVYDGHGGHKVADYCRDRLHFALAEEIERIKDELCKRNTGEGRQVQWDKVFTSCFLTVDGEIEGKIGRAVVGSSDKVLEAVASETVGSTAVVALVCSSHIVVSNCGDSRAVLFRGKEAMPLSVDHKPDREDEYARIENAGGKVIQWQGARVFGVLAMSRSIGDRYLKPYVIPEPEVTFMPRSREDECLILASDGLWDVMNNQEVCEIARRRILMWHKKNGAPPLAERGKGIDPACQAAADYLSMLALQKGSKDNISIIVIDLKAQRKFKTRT
Briefly: yeast two-hybrid, X-gal; lowest benoxacor concentration giving signal. The method, then: The set of 475 mutant plasmids were individually transformed into the Y190 yeast two hybrid reporter strain co-transformed with pACT-HAB1, as previously described (Park et al., 2009). The yeast strains generated were arrayed into 96-well plates yielding what we refer to as the “pocket library”. The pocket library strains were spotted onto agar plates containing selective synthetic dextrose (minus Leu & Trp) medium that was supplemented with a single test compound at 100 μM. The pocket library strains were separately tested for responsiveness to the following compounds: dichlobenil, benzothiadiazole, mandipropamid, fludioxonil, and benoxacor. After incubating test plates at 30° C. for two days, colonies were chloroform lysed and stained to reveal β-galactosidase expression levels, using previously described methods (Park et al., 2009). Mutants displaying responsiveness to the test compound, if present, were identified by virtue of X-gal staining and then subjected to subsequent optimization efforts. Using this approach we identified mutations that conferred detectable sensitivity to the compounds tested (see entries labeled “Pocket Library Screens” in Table 1).

The target in series [3] is T3, GAL4 activation domain fusion (ACT) to …. Description: yeast two-hybrid, X-gal; lowest fludioxonil concentration giving signal.
The target is the same in series [4]. Description: yeast two-hybrid, X-gal; lowest dichlobenil concentration giving signal.
Series [5] has the same target. Description: yeast two-hybrid, X-gal; lowest benzothiadiazole concentration giving signal.
Series [6] has the same target. Description: yeast two-hybrid, X-gal; lowest mandipropamid concentration giving signal.

B1: GST-HAB1 (protein)
chain: SPVEITQLKNVTDAADLLSDSENQSFCNGGTECTMEDVSELEEVGEQDLLKTLSDTRSGSSNVFDEDDVLSVVEDNSAVISEGLLVVDAGSELSLSNTAMEIDNGRVLATAIIVGESSIEQVPTAEVLIAGVNQDTNTSEVVIRLPDENSNHLVKGRSVYELDCIPLWGTVSIQGNRSEMEDAFAVSPHFLKLPIKMLMGDHEGMSPSLTHLTGHFFGVYDGHGGHKVADYCRDRLHFALAEEIERIKDELCKRNTGEGRQVQWDKVFTSCFLTVDGEIEGKIGRAVVGSSDKVLEAVASETVGSTAVVALVCSSHIVVSNCGDSRAVLFRGKEAMPLSVDHKPDREDEYARIENAGGKVIQWQGARVFGVLAMSRSIGDRYLKPYVIPEPEVTFMPRSREDECLILASDGLWDVMNNQEVCEIARRRILMWHKKNGAPPLAERGKGIDPACQAAADYLSMLALQKGSKDNISIIVIDLKAQRKFKTRT
In the case of B1, the “PP2C activity (pNPP substrate), 600 nM PP2C and 1200 nM receptor” value in series [1] was “saturable inhibition of HAB1 and ABI2 PP2C activity by mandipropamid in the presence of PYR1^MANDI (FIG. 1A, bottom lines) and PYR1^K59R,F108A,S122G”; in the series with 6×-His-PYR1^MANDI it was “saturable inhibition of HAB1 and ABI2 PP2C activity by mandipropamid in the presence of PYR1^MANDI”.

B2: PYR1^K59R,A89I (receptor)
chain: MPSELTPEERSELKNSIAEFHTYQLDPGSCSSLHAQRIHAPPELVWSIVRRFDKPQTYRHFIKSCSVEQNFEMRVGCTRDVIVISGLPINTSTERLDILDDERRVTGFSIIGGEHRLTNYKSVTTVHRFEKENRIWTVVLESYVVDMPEGNSEDDTRMFADTVVKLNLQKLATVAEAMARNSGDGSGSQVT
notes: pBD-PYR1 fusion in yeast
In series [2], B2 yielded a Threshold of 100 µM.

B3: PYR1^K59R,S92W (receptor)
chain: MPSELTPEERSELKNSIAEFHTYQLDPGSCSSLHAQRIHAPPELVWSIVRRFDKPQTYRHFIKSCSVEQNFEMRVGCTRDVIVISGLPANTWTERLDILDDERRVTGFSIIGGEHRLTNYKSVTTVHRFEKENRIWTVVLESYVVDMPEGNSEDDTRMFADTVVKLNLQKLATVAEAMARNSGDGSGSQVT
notes: pBD-PYR1 fusion in yeast
B3: in series [2], the Threshold was 50 µM.

B4: PYR1^K59R,L87F (receptor)
chain: MPSELTPEERSELKNSIAEFHTYQLDPGSCSSLHAQRIHAPPELVWSIVRRFDKPQTYRHFIKSCSVEQNFEMRVGCTRDVIVISGFPANTSTERLDILDDERRVTGFSIIGGEHRLTNYKSVTTVHRFEKENRIWTVVLESYVVDMPEGNSEDDTRMFADTVVKLNLQKLATVAEAMARNSGDGSGSQVT
notes: pBD-PYR1 fusion in yeast
Turning to B4, the Threshold in series [2] and in series [3] was 100 µM throughout.

B5: PYR1^K59R,A89I,S92I (receptor)
chain: MPSELTPEERSELKNSIAEFHTYQLDPGSCSSLHAQRIHAPPELVWSIVRRFDKPQTYRHFIKSCSVEQNFEMRVGCTRDVIVISGLPINTITERLDILDDERRVTGFSIIGGEHRLTNYKSVTTVHRFEKENRIWTVVLESYVVDMPEGNSEDDTRMFADTVVKLNLQKLATVAEAMARNSGDGSGSQVT
notes: pBD-PYR1 fusion in yeast
As to B5, the Threshold in series [2] was 50 µM.

B6: PYR1^K59R,M158V (receptor, not shown: small tags and cut ends)
chain: MPSELTPEERSELKNSIAEFHTYQLDPGSCSSLHAQRIHAPPELVWSIVRRFDKPQTYRHFIKSCSVEQNFEMRVGCTRDVIVISGLPANTSTERLDILDDERRVTGFSIIGGEHRLTNYKSVTTVHRFEKENRIWTVVLESYVVDMPEGNSEDDTRVFADTVVKLNLQKLATVAEAMARNSGDGSGSQVT
notes: pBD-PYR1 fusion in yeast
As for B6, the Threshold in series [4], in series [5], in series [2] and in series [3] was 100 µM each time.

B7: PYR1^K59R,M158C (receptor, not shown: small tags and cut ends)
chain: MPSELTPEERSELKNSIAEFHTYQLDPGSCSSLHAQRIHAPPELVWSIVRRFDKPQTYRHFIKSCSVEQNFEMRVGCTRDVIVISGLPANTSTERLDILDDERRVTGFSIIGGEHRLTNYKSVTTVHRFEKENRIWTVVLESYVVDMPEGNSEDDTRCFADTVVKLNLQKLATVAEAMARNSGDGSGSQVT
notes: pBD-PYR1 fusion in yeast
With B7, the Threshold in series [4], in series [5], in series [2] and in series [3] was 100 µM throughout.

B8: PYR1^K59R,A89I,S92W (receptor)
chain: MPSELTPEERSELKNSIAEFHTYQLDPGSCSSLHAQRIHAPPELVWSIVRRFDKPQTYRHFIKSCSVEQNFEMRVGCTRDVIVISGLPINTWTERLDILDDERRVTGFSIIGGEHRLTNYKSVTTVHRFEKENRIWTVVLESYVVDMPEGNSEDDTRMFADTVVKLNLQKLATVAEAMARNSGDGSGSQVT
notes: pBD-PYR1 fusion in yeast
For B8, the Threshold in series [2] came to 50 µM.

B9: PYR1^K59R,M158T (receptor, not shown: small tags and cut ends)
chain: MPSELTPEERSELKNSIAEFHTYQLDPGSCSSLHAQRIHAPPELVWSIVRRFDKPQTYRHFIKSCSVEQNFEMRVGCTRDVIVISGLPANTSTERLDILDDERRVTGFSIIGGEHRLTNYKSVTTVHRFEKENRIWTVVLESYVVDMPEGNSEDDTRTFADTVVKLNLQKLATVAEAMARNSGDGSGSQVT
notes: pBD-PYR1 fusion in yeast
For the molecule B9, the Threshold in series [4], in series [5], in series [2] and in series [3] was 100 µM throughout.

B10: PYR1^K59R,A89W (receptor)
chain: MPSELTPEERSELKNSIAEFHTYQLDPGSCSSLHAQRIHAPPELVWSIVRRFDKPQTYRHFIKSCSVEQNFEMRVGCTRDVIVISGLPWNTSTERLDILDDERRVTGFSIIGGEHRLTNYKSVTTVHRFEKENRIWTVVLESYVVDMPEGNSEDDTRMFADTVVKLNLQKLATVAEAMARNSGDGSGSQVT
notes: pBD-PYR1 fusion in yeast
B10: the Threshold in series [6] and in series [2] was 100 µM throughout.

B11: PYR1^K59R,F159V (receptor, not shown: small tags and cut ends)
chain: MPSELTPEERSELKNSIAEFHTYQLDPGSCSSLHAQRIHAPPELVWSIVRRFDKPQTYRHFIKSCSVEQNFEMRVGCTRDVIVISGLPANTSTERLDILDDERRVTGFSIIGGEHRLTNYKSVTTVHRFEKENRIWTVVLESYVVDMPEGNSEDDTRMVADTVVKLNLQKLATVAEAMARNSGDGSGSQVT
notes: pBD-PYR1 fusion in yeast
On to B11, for which the Threshold in series [4], in series [6], in series [5], in series [2] and in series [3] was 100 µM in each case.

B12: PYR1^K59R,T162W (receptor, not shown: small tags and cut ends)
chain: MPSELTPEERSELKNSIAEFHTYQLDPGSCSSLHAQRIHAPPELVWSIVRRFDKPQTYRHFIKSCSVEQNFEMRVGCTRDVIVISGLPANTSTERLDILDDERRVTGFSIIGGEHRLTNYKSVTTVHRFEKENRIWTVVLESYVVDMPEGNSEDDTRMFADWVVKLNLQKLATVAEAMARNSGDGSGSQVT
notes: pBD-PYR1 fusion in yeast
In the case of B12, the Threshold stood at 100 µM in series [4], 100 µM in series [5], 50 µM in series [2] and 100 µM in series [3].

B13: PYR1^K59R,S92I (receptor)
chain: MPSELTPEERSELKNSIAEFHTYQLDPGSCSSLHAQRIHAPPELVWSIVRRFDKPQTYRHFIKSCSVEQNFEMRVGCTRDVIVISGLPANTITERLDILDDERRVTGFSIIGGEHRLTNYKSVTTVHRFEKENRIWTVVLESYVVDMPEGNSEDDTRMFADTVVKLNLQKLATVAEAMARNSGDGSGSQVT
notes: pBD-PYR1 fusion in yeast
B13: in series [2], the Threshold came to 50 µM.
